Laboratory results taken from article PMC11417369, “DNA sequence and chromatin differentiate sequence-specific transcription factor binding in the human malaria parasite Plasmodium falciparum”.

Biological target: T1, AP2-G D1 (Plasmodium falciparum, UniProt Q8I5I9 2123-2245)
T1 sequence: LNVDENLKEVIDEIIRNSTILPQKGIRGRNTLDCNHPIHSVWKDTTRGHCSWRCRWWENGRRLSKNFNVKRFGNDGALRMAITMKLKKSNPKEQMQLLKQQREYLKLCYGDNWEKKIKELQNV
Assay: gcPBM; about 25 ug protein; PBS, 1% milk, 0.2 mg/ml BSA, salmon testes DNA, 0.03% Triton X-100
Conditions: tags: N-terminal GST (pGEX-4T-1), kept; label: surface-attached array probe

B1: XGTACX_negctrl_site100 (dsDNA)
DNA 1: TTTATATTATAATATAATAATGATCTTAATTTTTTT
DNA 2: AAAAAAATTAAGATCATTATTATATTATAATATAAA
  binding signal: 9.34 ln median PBM intensity, better of two orientations

B2: XGTACX_negctrl_site84 (dsDNA)
DNA 1: TTCAAAAAATAAAATAATAATATATATATAAATATA
DNA 2: TATATTTATATATATATTATTATTTTATTTTTTGAA
  binding signal: 9.17 ln median PBM intensity, better of two orientations

B3: XGTACX_site2716 (dsDNA)
DNA 1: AAAACTTTCCATGTTTGTACATAAAATATAATAATT
DNA 2: AATTATTATATTTTATGTACAAACATGGAAAGTTTT
  binding signal: 11.3 ln median PBM intensity, better of two orientations

B4: XGTACX_negctrl_site185 (dsDNA)
DNA 1: AAACAACAAAAATGATATATATAAAATTTATAATAT
DNA 2: ATATTATAAATTTTATATATATCATTTTTGTTGTTT
  binding signal: 9.32 ln median PBM intensity, better of two orientations

B5: XGTACX_site7313 (dsDNA)
DNA 1: TATATACTTTATAAATGTACATATAATGTATTATTT
DNA 2: AAATAATACATTATATGTACATTTATAAAGTATATA
  binding signal: 11.3 ln median PBM intensity, better of two orientations

B6: XGTACX_negctrl_site499 (dsDNA)
DNA 1: TTTTACTATGATATTTATATATCTATATATGTATAT
DNA 2: ATATACATATATAGATATATAAATATCATAGTAAAA
  binding signal: 9.32 ln median PBM intensity, better of two orientations

B7: XGTACX_site8946 (dsDNA)
DNA 1: ATTAATCCAAATGAATGTACTTAATAATGTAATTAT
DNA 2: ATAATTACATTATTAAGTACATTCATTTGGATTAAT
  binding signal: 11.2 ln median PBM intensity, better of two orientations

B8: XGTACX_negctrl_site234 (dsDNA)
DNA 1: ATTATAACTAAATAAATGATATATAATATTTTATTT
DNA 2: AAATAAAATATTATATATCATTTATTTAGTTATAAT
  binding signal: 9.29 ln median PBM intensity, better of two orientations

B9: XGTACX_site611 (dsDNA)
DNA 1: TAATTTCTTATGTATTGTACAAATAATATATGATAT
DNA 2: ATATCATATATTATTTGTACAATACATAAGAAATTA
  binding signal: 11.3 ln median PBM intensity, better of two orientations

B10: XGTACX_site8424 (dsDNA)
DNA 1: TATTTTGTCATAGAACGTACTTATAAATATTTTTTT
DNA 2: AAAAAAATATTTATAAGTACGTTCTATGACAAAATA
  binding signal: 11.3 ln median PBM intensity, better of two orientations

B11: XGTACX_negctrl_site79 (dsDNA)
DNA 1: TACATGTATGTAATATGTTTTATTTTTTTCATCTCT
DNA 2: AGAGATGAAAAAAATAAAACATATTACATACATGTA
  binding signal: 9.12 ln median PBM intensity, better of two orientations

B12: XGTACX_site5536 (dsDNA)
DNA 1: TAACACACTAAGAAAAGTACTGATTAATATAATTTT
DNA 2: AAAATTATATTAATCAGTACTTTTCTTAGTGTGTTA
  binding signal: 11.2 ln median PBM intensity, better of two orientations

B13: XGTACX_negctrl_site51 (dsDNA)
DNA 1: AAAAATAAAAAATATAAAAATATAAAAATATAAAAA
DNA 2: TTTTTATATTTTTATATTTTTATATTTTTTATTTTT
  binding signal: 9.09 ln median PBM intensity, better of two orientations

B14: XGTACX_site8441 (dsDNA)
DNA 1: AATAATATCTGAAAATGTACATTTTATTATAAACAT
DNA 2: ATGTTTATAATAAAATGTACATTTTCAGATATTATT
  binding signal: 11.2 ln median PBM intensity, better of two orientations

B15: XGTACX_negctrl_site127 (dsDNA)
DNA 1: TTTTTAAAAAAATTGATTCTTTTTCTTTTTTTTCTT
DNA 2: AAGAAAAAAAAGAAAAAGAATCAATTTTTTTAAAAA
  binding signal: 9.16 ln median PBM intensity, better of two orientations

B16: XGTACX_site1904 (dsDNA)
DNA 1: TTGACATATAAGATATGTACTAATACACACACATAT
DNA 2: ATATGTGTGTGTATTAGTACATATCTTATATGTCAA
  binding signal: 11.2 ln median PBM intensity, better of two orientations

B17: XGTACX_negctrl_site404 (dsDNA)
DNA 1: ATAAAATAAATATTTTGTTATTTATTTAATCTAATA
DNA 2: TATTAGATTAAATAAATAACAAAATATTTATTTTAT
  binding signal: 9.22 ln median PBM intensity, better of two orientations

B18: XGTACX_site5843 (dsDNA)
DNA 1: ATTTCAAAATATAGCTGTACAAAAAATGTAGATATA
DNA 2: TATATCTACATTTTTTGTACAGCTATATTTTGAAAT
  binding signal: 11.2 ln median PBM intensity, better of two orientations

B19: XGTACX_site7391 (dsDNA)
DNA 1: TGTCAATCATATAAATGTACATTTTAAATGAGGTGT
DNA 2: ACACCTCATTTAAAATGTACATTTATATGATTGACA
  binding signal: 11.2 ln median PBM intensity, better of two orientations

B20: XGTACX_negctrl_site18 (dsDNA)
DNA 1: TCATAAAAAGGAATCTTTAAGATATTTTATAAGCTC
DNA 2: GAGCTTATAAAATATCTTAAAGATTCCTTTTTATGA
  binding signal: 9.17 ln median PBM intensity, better of two orientations

B21: XGTACX_negctrl_site511 (dsDNA)
DNA 1: ATGAAATCTTTAGAATATAGATGATGTTATTTAATT
DNA 2: AATTAAATAACATCATCTATATTCTAAAGATTTCAT
  binding signal: 9.15 ln median PBM intensity, better of two orientations

B22: XGTACX_negctrl_site478 (dsDNA)
DNA 1: TACATATATATAATATATATATCATCATATTTTCTT
DNA 2: AAGAAAATATGATGATATATATATTATATATATGTA
  binding signal: 9.22 ln median PBM intensity, better of two orientations

B23: XGTACX_site4343 (dsDNA)
DNA 1: TTTATATACTATCAACGTACAAAAGTAATAAAAATA
DNA 2: TATTTTTATTACTTTTGTACGTTGATAGTATATAAA
  binding signal: 11.3 ln median PBM intensity, better of two orientations

B24: XGTACX_negctrl_site412 (dsDNA)
DNA 1: AAAGGAGACAGAATAAGAATAAATATTATACATATA
DNA 2: TATATGTATAATATTTATTCTTATTCTGTCTCCTTT
  binding signal: 9.08 ln median PBM intensity, better of two orientations

B25: XGTACX_site8398 (dsDNA)
DNA 1: TAAAAAATAAAATAATGTACATATGAATTATATATT
DNA 2: AATATATAATTCATATGTACATTATTTTATTTTTTA
  binding signal: 11.2 ln median PBM intensity, better of two orientations

B26: XGTACX_site8520 (dsDNA)
DNA 1: ATATGAAAAAGAACTTGTACTAAAGTGGCATATTAT
DNA 2: ATAATATGCCACTTTAGTACAAGTTCTTTTTCATAT
  binding signal: 11.3 ln median PBM intensity, better of two orientations

B27: XGTACX_negctrl_site8 (dsDNA)
DNA 1: TAAAACATGTTTTTATATATTATTATTATATTTATA
DNA 2: TATAAATATAATAATAATATATAAAAACATGTTTTA
  binding signal: 9.11 ln median PBM intensity, better of two orientations

B28: XGTACX_site4080 (dsDNA)
DNA 1: AATACAATTGAAAATTGTACTTTGTTTTTTATAAAT
DNA 2: ATTTATAAAAAACAAAGTACAATTTTCAATTGTATT
  binding signal: 11.3 ln median PBM intensity, better of two orientations

B29: XGTACX_negctrl_site442 (dsDNA)
DNA 1: TATTTTATTTCAAATCTTAATAATTGTAATTCTTCA
DNA 2: TGAAGAATTACAATTATTAAGATTTGAAATAAAATA
  binding signal: 8.99 ln median PBM intensity, better of two orientations

B30: XGTACX_negctrl_site344 (dsDNA)
DNA 1: TACAAAAAAATAAATAATAAAAAAAAATATATATAA
DNA 2: TTATATATATTTTTTTTTATTATTTATTTTTTTGTA
  binding signal: 9.07 ln median PBM intensity, better of two orientations

B31: XGTACX_negctrl_site140 (dsDNA)
DNA 1: ATCTTATATCGTAGAGATTTTTTTTTTTTTTCATTT
DNA 2: AAATGAAAAAAAAAAAAAATCTCTACGATATAAGAT
  binding signal: 9.22 ln median PBM intensity, better of two orientations

B32: XGTACX_site6203 (dsDNA)
DNA 1: AAAAAAAAAAAATAAAGTACTAAATAATACATTATA
DNA 2: TATAATGTATTATTTAGTACTTTATTTTTTTTTTTT
  binding signal: 11.2 ln median PBM intensity, better of two orientations
